Reference: paper PMC10828586, “Unmasking crucial residues in adipose triglyceride lipase for coactivation with comparative gene identification-58” (Journal of Lipid Research, 2023)
Where a chain is given by its changes, count along the chain named.

Columns and labels:
Assay in all cases: cell-based or functional assay
[1] = target: T1, Xpress-mATGL, full-length, WT (Mus musculus, UniProt Q8BJ56 1-486)
T1 sequence (looked up): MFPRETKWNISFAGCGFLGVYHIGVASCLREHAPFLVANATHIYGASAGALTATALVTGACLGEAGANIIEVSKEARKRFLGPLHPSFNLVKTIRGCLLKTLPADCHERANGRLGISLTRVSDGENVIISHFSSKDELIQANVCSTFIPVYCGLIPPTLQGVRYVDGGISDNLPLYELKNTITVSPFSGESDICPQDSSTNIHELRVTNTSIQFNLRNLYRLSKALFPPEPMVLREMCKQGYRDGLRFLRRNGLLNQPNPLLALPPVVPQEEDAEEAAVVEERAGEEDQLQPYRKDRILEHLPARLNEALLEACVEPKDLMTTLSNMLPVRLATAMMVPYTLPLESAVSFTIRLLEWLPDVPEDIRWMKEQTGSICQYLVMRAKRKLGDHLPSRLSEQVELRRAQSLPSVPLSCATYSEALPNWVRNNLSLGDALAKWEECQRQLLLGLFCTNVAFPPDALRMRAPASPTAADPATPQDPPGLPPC

[2] = target: T2, Xpress-mATGL288, WT (truncated after residue 288) (Mus musculus, UniProt Q8BJ56 1-288)
T2 sequence (looked up): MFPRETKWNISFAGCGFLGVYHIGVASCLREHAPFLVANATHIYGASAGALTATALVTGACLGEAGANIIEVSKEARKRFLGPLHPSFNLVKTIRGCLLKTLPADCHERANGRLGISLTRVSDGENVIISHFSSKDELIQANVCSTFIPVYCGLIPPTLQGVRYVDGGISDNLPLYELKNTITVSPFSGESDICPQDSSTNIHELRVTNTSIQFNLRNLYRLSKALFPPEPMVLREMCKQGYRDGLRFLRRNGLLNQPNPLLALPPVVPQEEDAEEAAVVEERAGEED

[3] = target: T3, Xpress-mATGL288 N209A/I212A/N215A (Mus musculus, UniProt Q8BJ56 1-288, N209A | I212A | N215A)
T3 sequence (looked up): T2 sequence (looked up) with N209A, I212A, N215A

[4] = target: T4, smt3-mATGL288-StrepII (mouse adipose triglyceride lipase truncated after residue 288), WT (Mus musculus, UniProt Q8BJ56 1-288)
T4 sequence (looked up): T2 sequence (looked up)

[5] = target: T5, smt3-mATGL288-StrepII N209A (Mus musculus, UniProt Q8BJ56 1-288, N209A)
T5 sequence (looked up): T2 sequence (looked up) with N209A

[6] = target: T6, smt3-mATGL288-StrepII I212A (Mus musculus, UniProt Q8BJ56 1-288, I212A)
T6 sequence (looked up): T2 sequence (looked up) with I212A

[7] = target: T7, smt3-mATGL288-StrepII I212S (Mus musculus, UniProt Q8BJ56 1-288, I212S)
T7 sequence (looked up): T2 sequence (looked up) with I212S

[8] = target: T8, smt3-mATGL288-StrepII N215A (Mus musculus, UniProt Q8BJ56 1-288, N215A)
T8 sequence (looked up): T2 sequence (looked up) with N215A

fold activation of TG hydrolase activity by mCGI-58 (Expi293F lysate) [1]: ~20 fold
fold activation of TG hydrolase activity by mCGI-58 (Expi293F lysate) [2]: 11 fold
fold activation of TG hydrolase activity by mCGI-58 (Expi293F lysate) [3]: ≤ 2 fold
EC50 of mCGI-58 for coactivation of TG hydrolase activity (25 μg bacterial lysate with mATGL288, purified mCGI-58 up to 2,300 nM) [4]: 178 nM
EC50 of mCGI-58 for coactivation of TG hydrolase activity (25 μg bacterial lysate with mATGL288 N209A, purified mCGI-58 up to 2,300 nM) [5]: 500 nM
EC50 of mCGI-58 for coactivation of TG hydrolase activity (25 μg bacterial lysate with mATGL288 I212A, purified mCGI-58 up to 2,300 nM) [6]: 500 nM
EC50 of mCGI-58 for coactivation of TG hydrolase activity (25 μg bacterial lysate with mATGL288 I212S, purified mCGI-58 up to 2,300 nM) [7]: 200 nM
EC50 of mCGI-58 for coactivation of TG hydrolase activity (25 μg bacterial lysate with mATGL288 N215A, purified mCGI-58 up to 2,300 nM) [8]: 200 nM
B1: smt3-mCGI-58-His6 (mouse comparative gene identification-58) (natural protein, UniProt Q9DBL9 1-351, looked up)
chain: MKAMAAEEEVDSADAGGGSGWLTGWLPTWCPTSTSHLKEAEEKMLKCVPCTYKKEPVRISNGNRIWTLMFSHNISSKTPLVLLHGFGGGLGLWALNFEDLSTDRPVYAFDLLGFGRSSRPRFDSDAEEVENQFVESIEEWRCALRLDKMILLGHNLGGFLAAAYSLKYPSRVSHLILVEPWGFPERPDLADQERPIPVWIRALGAALTPFNPLAGLRIAGPFGLSLVQRLRPDFKRKYSSMFEDDTVTEYIYHCNVQTPSGETAFKNMTIPYGWAKRPMLQRIGGLHPDIPVSVIFGARSCIDGNSGTSIQSLRPKSYVKTIAILGAGHYVYADQPEEFNQKVKEICHTVD
